What was measured:
[1] = GTPase activity (hydrolysis of 32P-labelled GTP, PEI cellulose TLC, bioimaging analyzer); type: biochemical; conditions: immunoprecipitate on anti-HA antibody sepharose, one hour at 30° C., FIG. 5
[2] = GTP binding ability (UV cross-linking with [γ-35S] GTP, SDS-PAGE, autoradiography); conditions: [γ-35S] GTP 1 μM, one hour at 30° C., protein expressed in E. coli DH5α
Description: As Mms 16 of the present invention contained many GTP binding proteins and homologous sequences, the GTP binding ability of Mms 16 was investigated as follows. 1 μl of [γ-^35S] GTP (1 μM; 1,250 Ci/mmol) and cell homogenate were mixed in 20 μl binding buffer (50 mM Tris-HCl, 5 mM MgCl2, 1 mM EDTA, 0.3% Tween 20), and kept still for one hour at 30° C. Then, the obtained reaction mixture was kept still on ice for 20 minutes, and ultraviolet bridging was performed between GTP and protein by using an ultraviolet lamp. Subsequently, ½ amount of 3× sample buffer was added to the reaction solution to denature the protein, and sepharose beads were precipitated by centrifugation, supernatant was loaded onto 15% (w/v) acrylamide gel. After SDS-PAGE, the gel was dried and wrapped in Saran Wrap, and detection was conducted by autoradiography.
As a result, in addition to the protein that binds to [γ-^35S] […] GTP. In case where [α-^32P] GTP is used, [α-^32P] GTP binding type of GTPase is not observed because GDP also dissociates from GTPase when phosphoric acid in position γ dissociates from GTP binding type GTPase by hydrolysis activity. However, in case where [γ-^35S] GTP is used, it is possible to show the presence of GTPase because S is binding to 5′ of phosphoric acid in position γ, and therefore, hydrolysis is not caused by GTPase.

In the case of “Mms 16-HA fusion protein: Mms 16 fused at C-terminal with hemagglutinin epitope tag (YPYDVPDYA), expressed in E. coli from pTrc 16HA”, the GTPase activity [1] is reported as “[α-^32P] GTP was hydrolyzed”.

B1: Mms 16: 16 kDa protein specific to a magnetic particle membrane of Magnetospirillum sp. AMB-1, amino acid sequence Seq. ID No. 2 (protein, listed as Magnetospirillum sp.)
chain: MAAKQTEQFFDFDVAKYLGDFKVPGVDVETIVANQRKNIEALTQANKLAFEGLQNVVKRQVEILRQTMDEVAQVSKDFAEPGSPQGKAAKQAEFAKDAFERALXNARELAEMIAKANSEAFDLLNKXFTQSLDEAREVFTKAGKK
modifications: X: residue not identified in the source
notes: 16 kDa protein specific to a magnetic particle membrane of Magnetospirillum sp; ID No. 2
In the case of B1, the GTP binding ability [2] is reported as “apparently bind to [γ-^35S] GTP” and the GTPase activity [1] is reported as “has GTPase activity”.

From patent US20040048289A1, “Magnetic particle membrane-specific protein” (priority 2000, published 2004)
